What is called Kd is the free concentration of one partner at which half of the binding sites on the other are occupied at equilibrium, for simple one-to-one binding.

The target of experiment [1] is T1, Hepsin (human), recombinant, active (human, UniProt P05981 45-417).
T1 construct: In the Octet and ELISA assays it was biotinylated with Sulfo-NHS-LC-Biotin; also called human hepsin; active hepsin
Nature of the experiment: BLI (Octet RED), biotinylated hepsin on streptavidin sensor, Fab25 in solution, 1:1 fit. On the procedure: Fab25 binding to hepsin: An Octet-RED system equipped with streptavidin SBC biosensor tips was purchased from ForteBio (Menlo Park, Calif.). Prior to the start of the experiment, the sensor tips were pre-wet for 15 minutes at 25° C. in a buffer containing 50 mM Hepes pH 7.5, 150 mM NaCl and 0.05% tween-20. Biotinylated hepsin (7.5 μg/ml) was captured on to the streptavidin sensor for 5 minutes with agitation at 1000 rpm. The sensors were briefly washed in buffer before dipping them on to the sample wells containing Fab25 (2-fold serial dilution starting from 200 nM) and buffer control. Association was monitored for 10 minutes and dissociation was followed for 30 minutes. The data was fit to 1:1 binding model using Octet-RED analysis software.

Experiment [2] addresses T1, Hepsin (human), recombinant, active. Kind of experiment: isothermal titration calorimetry, Fab25 titrated into active hepsin. Here is the method:
FIG. 18: Isothermal titration calorimetric experiment of Fab25 binding to active hepsin. The association reaction is exothermic and the stoichiometry of binding is 1:1 as expected.
Isothermal Titration calorimetry: TC experiments were performed on a ITC₂₀₀ instrument (GE healthcare). Fab25 and hepsin were purified separately on a size exclusion chromatographic column (Superdex S200, GE healthcare), using a buffer containing 50 mM HEPES pH 7.5 and 150 mM NaCl. The sample cell (204 μl) was loaded with hepsin (14 μM) and the Fab25 concentration in the syringe was 138 μM. A titration experiment typically consisted of 20 injections, each of 2 μL volume and 180 sec duration, with a 3 min interval between additions. The stirring rate was 1000 rpm. Raw data were integrated, corrected for nonspecific heats, normalized for concentration, and analyzed according to a 1:1 binding model assuming a single set of identical binding sites. (The isothermal titration curve was registered and analyzed using ORIGIN software provided with the ITC instrument. The data were integrated to provide a titration curve; and, by using a nonlinear least-squares fit, the binding constant KA, the heat of binding (ΔH), and the stoichiometry of binding were extracted from the curve.

Experiment [3] shares this target. Kind of experiment: cell-based or functional assay.
The target in experiment [4] is mouse hepsin extracellular domain (Ser45-Pro416) with C-terminal His-tag (mouse) (UniProt O35453). Nature of the experiment: enzyme inhibition, S2765 substrate, tight binding inhibition fit (Ki app); Fab25, murine hepsin.
In experiment [5] the target is T1, Hepsin (human), recombinant, active. Kind of experiment: enzyme inhibition, S2765 substrate, tight binding inhibition fit (Ki app); Fab25, human hepsin. Here is the method:
(§1) Enzymatic assays with synthetic substrates: Fab25, IgG25, control Fab, or control IgG were incubated with hepsin (1 nM for human and 2 nM for mouse hepsin) in Hepes buffer (20 mM Hepes, pH 7.5, 150 mM NaCl, 5 mM CaCl₂, 0.01% Triton X-100) for 40 min at room temperature. For experiments with 3,4-dichloro-isocoumarin (DCI), hepsin (1 nM) was incubated with DCI in Hepes buffer containing 0.5% DMSO for 40 min. S2765 was added (final concentration of 0.2 mM) and the linear rates of the increase in absorbance at 405 nm measured on a kinetic microplate reader (Versamax, Molecular Devices, Sunnyvale, Calif.). Data were expressed as fractional enzyme activity (vᵢ/vₒ) and fitted to a four parameter regression curve fitting program (Kaleidagraph Version 3.6, Synergy Software) to determine the IC₅₀ values. Values are the average±SD of three independent experiments. Kᵢ^app values for Fab25 and IgG25 were calculated by fitting the data to the equation for tight binding inhibition systems (Morrison, 1969; Olivero et al., 2005).

For experiment [6] the target is unchanged. Nature of the experiment: cell-based or functional assay. The source holds these as a separate data set.
The target of experiment [7] is mouse hepsin extracellular domain (Ser45-Pro416) with C-terminal His-tag (mouse) (UniProt O35453).
The target in experiment [8] is T1, Hepsin (human), recombinant, active. Nature of the experiment: enzyme inhibition, S2765 substrate (ratio of Ki app). On the procedure: as §1
Experiment [9] has the same target. Nature of the experiment: SPR (BIAcore 3000), Ab25 captured by anti-human IgG on CM5 chip, active human hepsin injected, 1:1 fit. On the procedure: (§2) FIG. 17: A. Surface plasmon resonance was used to measure the binding affinity of Ab25 with active human hepsin. Serial dilutions of hepsin (0.39 nM to 200 nM) were injected to a CM5 biosensor chip with captured Ab25 for 3 minutes and the dissociation was monitored for 15 minutes. […] Serial dilutions of pro-hepsin (195 nM to 80 μM) were injected to a CM5 biosensor chip with captured Ab25 for 2 minutes.
(§3) Binding of Ab25 to hepsin by surface plasmon resonance: Surface plasmon resonance measurements were performed on a BIAcore™-3000 instrument (GE Health Care, NJ) to determine binding affinity of the Ab25. Rabbit anti-human IgG were chemically immobilized (amine coupling) on CM5 biosensor chips and Ab25 was captured to give approximately 350 response units (RU). For kinetics measurements, two-fold serial dilutions of active hepsin (1 nM to 500 nM) were injected in HBS-P buffer at 25° C. with a flow rate of 30 μl/min. Association rates (kₐ) and dissociation rates (kd) were obtained by using a simple one-to-one Langmuir binding model (BIA-Evaluation) and the equilibrium dissociation constants (KD) were calculated (kd/kₐ). Due to rapid kinetics, a steady state measurement was used to determine the affinity of pro-hepsin with Ab25. […] The values of Req were calculated and plotted individually against C (concentration of pro-hepsin) using BIA-Evaluation to determine KD.
For orientation: SPR reads the build-up and loss of mass on a sensor chip optically.

Experiment [10] shares this target. Kind of experiment: enzyme inhibition, S2765 substrate, tight binding inhibition fit (Ki app); IgG25, not Fab; human hepsin. On the procedure:
as §1

Experiment [11] concerns the target pro-hepsin (UniProt P05981 45-417, limits assumed). Kind of experiment: SPR (BIAcore 3000), Ab25 captured on CM5 chip, pro-hepsin injected, steady state analysis. On the procedure:
as §2, §3

The target of experiment [12] is T1, Hepsin (human), recombinant, active. Kind of experiment: phage competition ELISA: biotin-hepsin immobilised on NeutrAvidin plates, bound Fab25-phage detected with anti-M13-HRP, KD1 titrated as competitor of Fab25-phage.

T1 sequence (P05981 45-417 limits assumed): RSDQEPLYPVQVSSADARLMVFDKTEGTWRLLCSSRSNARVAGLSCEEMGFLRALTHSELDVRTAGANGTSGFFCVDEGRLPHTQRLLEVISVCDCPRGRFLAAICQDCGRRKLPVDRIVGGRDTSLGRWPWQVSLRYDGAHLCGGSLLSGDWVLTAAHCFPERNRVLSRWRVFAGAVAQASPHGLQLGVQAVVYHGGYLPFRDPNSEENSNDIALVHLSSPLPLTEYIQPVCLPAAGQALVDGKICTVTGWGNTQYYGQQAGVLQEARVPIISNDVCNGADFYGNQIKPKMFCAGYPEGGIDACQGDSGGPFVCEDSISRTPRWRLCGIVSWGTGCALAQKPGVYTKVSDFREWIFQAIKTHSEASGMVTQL
pro-hepsin, sequence (P05981 45-417 limits assumed): as above

B1: anti-hepsin antibody Fab25 (Fab, V domains shown)
VH: EVQLVESGGGLVQPGGSLRLSCAASGFNFSYSYMHWVRQAPGKGLEWVASIYSYYGSTYYADSVKGRFTISADTSKNTAYLQMNSLRAEDTAVYYCARSDSWSYKSGYTQKIYSKGLDYWGQGTLVTVSS
VL: DIQMTQSPSSLSASVGDRVTITCRASQSVSSAVAWYQQKPGKAPKLLIYSASSKGVPSRFSGSRSGTDFTLTISSLQPEDFATYYCQQYYSSYYLLTFGQGTKVEIK
notes: also called HpsFab25; Clone 25 (Fab form)
On to B1, for which the Kd worked out at 2.55 nM in [1] and 6.1 nM in experiment [2]. In addition, the stoichiometry of binding in [2] came to 1 Fab25 per hepsin. In addition, the “IC50 of hepsin-mediated pro-uPA activation (two-stage enzymatic assay)” value in experiment [3] turned out to be 3.3 nM. The Ki in experiment [4] was 329 nM; in experiment [5], 4.1 nM. Also, the “IC50 (read off the curve)” value was about 5 nM in [6] and 300 nM in experiment [7]. For the same molecule, in [8], the “fold more potent inhibition than of murine hepsin” value is about 80 fold.

B2: anti-hepsin antibody IgG25 (antibody, V domains shown)
VH: B1 VH
VL: B1 VL
notes: also called Ab25; mab 25
With B2, the figures for the Kd in experiment [9] and in experiment [11] were 10.6 nM and 5520 nM, respectively. In [10], the Ki worked out at 11.3 nM.

B3: Kunitz domain inhibitor-1 (KD1) derived from HGFA-inhibitor-1 (HAI-1) (other, UniProt O43278 246-303, looked up)
chain: TEDYCLASNKVGRCRGSFPRWYYDPTEQICKSFVYGGCLGNKNNYLREEECILACRGV
On to B3, for which the “IC50 (read off the curve)” value in [12] was about 0.2 nM.

The record behind these values is patent US20110262452A1 (Genentech, published 2011).
